Assay results taken from patent publication US20240398896A1, “INFLAMMASOME INHIBITION” (National University of Singapore, priority 2021, published 2024).

How the values were obtained:
bat NLRP3 inflammasome = assay: ASC speck formation in HEK293T cells reconstituted with bat NLRP3-mCitrine and bat ASC-mPlum (ImageStream); assay type: cell-based, Pteropus alecto; conditions: bat NLRP3-mCitrine, bat ASC-mPlum, ASC2-LSSmOrange overexpressed, FIG. 3B
From the text: (§1) Inflammasome activation assays.
(§2) ImageStream imaging flow cytometry. […] Nuclei were stained with DAPI.

AIM2 inflammasome [1] = target: T1, AIM2 inflammasome (Mus musculus, UniProt Q9EPB4); assay: Inflammasome activation in LPS-primed BMDMs of bat ASC2/rtTA mice transfected with poly(dA:dT); assay type: cell-based; conditions: Dox, LPS 3 h, poly(dA:dT) transfection 4 h, FIG. 5D, 5E
T1 construct: endogenous in cells; host or cells: BMDMs of wild-type and bat ASC2/rtTA mice
T1 sequence (Q9EPB4 1-193): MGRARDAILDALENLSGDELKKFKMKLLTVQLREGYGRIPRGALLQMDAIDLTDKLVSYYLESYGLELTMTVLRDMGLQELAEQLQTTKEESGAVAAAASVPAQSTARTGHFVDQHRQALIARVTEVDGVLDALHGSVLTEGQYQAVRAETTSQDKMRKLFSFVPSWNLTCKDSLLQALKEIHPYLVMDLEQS
From the text: as §1

[2] = tested on: peritonitis induced by MSU crystals; assay: Peritonitis induced by MSU crystals in bat ASC2/rtTA mice; assay type: in vivo, mouse; conditions: bat ASC2/rtTA vs WT mice, oral Dox 7 days, 200 μg MSU crystals i.p., 4 h
[3] = tested on: H1N1 IAV, strain A/NWS/33; assay type: in vivo, mouse
[4] = tested on: Pteropine orthoreovirus 3 (PRV3M); assay type: cell-based, mouse; conditions: bat ASC2/rtTA vs WT BMDMs
human ASC = target: T2, human ASC (Homo sapiens, UniProt Q9ULZ3); assay: Co-immunoprecipitation of ASC2-His with human ASC-Flag from HEK293T cells; assay type: binding; conditions: 0.25 μg bat or hupa4 ASC2 vs 3 μg human ASC2 transfected, FIG. 26A
T2 construct: expressed in transfected cells; host or cells: HEK293T
Description: (§3) Co-immunoprecipitation. HEK293T cells were transfected in 6-well plate with plasmids encoding His-tagged empty vector (His alone), bat ASC2, human ASC2, and Hupa4 ASC2 along with Flag-tagged human or bat ASC. 3 μg human ASC2, in contrast to 0.25 μg control, bat or hupa4 ASC2, were transfected to normalize the expression. At 48 h post-transfection, cells were lysed in IP lysis buffer (Pierce) according to manufacturer's protocol and centrifuged at 500 g for 10 minutes at 4° C. The supernatants were subjected to immunoprecipitation by incubation for 16 hours at 4° C. with anti-Flag (Sigma) incubated magnetic beads, followed by washing three times with TBS containing 0.05% Tween 20 and once with purified water. Bound proteins were separated by 15% SDS-PAGE, followed by immunoblotting analysis with the indicated antibodies.

bat ASC = assay: Co-immunoprecipitation of ASC2-His with bat ASC-Flag from HEK293T cells; assay type: binding; conditions: 0.25 μg bat or hupa4 ASC2 vs 3 μg human ASC2 transfected, FIG. 26B
Description: as §3

AIM2 inflammasome [5] = target: AIM2 inflammasome (Homo sapiens, UniProt Q9ULZ3); assay: ASC speck formation in HEK293T cells reconstituted with human AIM2-mCitrine and human ASC-mPlum (ImageStream); assay type: cell-based; design: expressed in transfected cells; host or cells: HEK293T; conditions: FIG. 3D
From the text: as §1, §2

NLRP3 inflammasome [6] = target: NLRP3 inflammasome (Homo sapiens, UniProt Q9ULZ3); assay: ASC speck formation by flow cytometry in reconstituted HEK293T cells (human NLRP3-mCitrine, human ASC-mPlum) with ASC2 of various species; assay type: cell-based; design: expressed in transfected cells; host or cells: HEK293T; conditions: 50 ng ASC2-LSSmOrange, 48 h, FIG. 27A
Description: Plasmids. ASC2 sequences of 16 non-primate non-bat species were gene synthesized (IDT) and cloned into pQCXIH-LSSmOrange vector (Clontech). All constructs were prepared with endotoxin-free plasmid kits (Omega Bio-tek).
Transfection. HEK293T cells were seeded at 3×10^5/mL in 96-well plate overnight. […] 48 h post-transfection, cells were harvested for flow cytometry analysis.

NLRP3 inflammasome [7] = target: T3, NLRP3 inflammasome (Mus musculus, UniProt Q9EPB4); assay: Inflammasome activation in LPS-primed BMDMs of WT or bat ASC2/rtTA mice stimulated with nigericin; conditions: Dox-induced bat ASC2, LPS 3 h
T3 sequence (Q9EPB4 1-193): T1 sequence (Q9EPB4 1-193)

Chain of AIM2 inflammasome (Homo sapiens, UniProt Q9ULZ3) (Q9ULZ3 whole entry): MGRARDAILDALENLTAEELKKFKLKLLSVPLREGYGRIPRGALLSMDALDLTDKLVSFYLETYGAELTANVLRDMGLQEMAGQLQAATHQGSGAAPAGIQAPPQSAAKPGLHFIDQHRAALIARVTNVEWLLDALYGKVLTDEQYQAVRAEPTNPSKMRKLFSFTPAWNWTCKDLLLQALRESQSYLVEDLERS
Chain of NLRP3 inflammasome (Homo sapiens, UniProt Q9ULZ3) (Q9ULZ3 whole entry): as above
T2 sequence (Q9ULZ3 whole entry): as above

B1: bat ASC2: ASC2 (PYRIN-only protein) of the bat Pteropus alecto, SEQ ID NO:11; expressed from vectors or as Dox-inducible transgene (protein)
chain: MGKKRDAILEALENLTADELKKFKLKLGAAPLRQGFRNIPRGALGPLDAVDLTDKLVAFYCEDYGAELTAVVLRDIGMQEEAERLQGVA
ASC speck formation (bat NLRP3 inflammasome activation) (bat NLRP3 inflammasome): inhibited bat NLRP3 inflammasome | Activation of AIM2 inflammasome (LDH release, IL-1β) (AIM2 inflammasome [1]): suppressed the activation | Recruitment of neutrophils and inflammatory monocytes (peritoneal lavage) ([2]; FIG. 8B, 8C): significantly reduced | IL-1β release in the peritoneal lavage ([2]; FIG. 8D): decreased | Level of IL-1β in lung tissue extracts ([3]; 3 dpi, bat ASC2/rtTA vs WT mice, FIG. 10B): significantly reduced | Lung viral titres ([3]; 3 dpi, bat ASC2/rtTA vs WT mice, FIG. 10C): no significant different | Mortality ([3]; bat ASC2/rtTA mice, IAV 0.5×10^5 pfu intranasal one day after Dox, 14 days post-infection, 100% of WT mice succumbed): 50% | IL-1β secretion triggered by PRV3M ([4]; LPS 3 h, PRV3M MOI=5, 24 h, Dox, FIG. 10G): substantially inhibited | Viral load for PRV3M ([4]; MOI=5, 24 h, FIG. 10E): without affecting the viral load | Interaction with human ASC (co-IP) (human ASC): interact strongly with human ASC | Interaction with bat ASC (co-IP) (bat ASC): interact with bat ASC more strongly than human ASC2 | ASC speck formation (human AIM2 inflammasome activation) (AIM2 inflammasome [5]; HEK293T, human AIM2-mCitrine, human ASC-mPlum, ASC2-LSSmOrange): suppressed the activation | Potency in inhibiting human AIM2 inflammasome compared with human ASC2 (AIM2 inflammasome [5]; expression normalized by gating equal signal intensity): significantly more potent | Effect on inflammasome activation (ASC speck formation) (NLRP3 inflammasome [6]): inhibitory effect | ASC speck formation (NLRP3 inflammasome [7]; nigericin 30 min, FIG. 6B, 6C): reduction of ASC speck formation | Pyroptotic cell death (LDH release) (NLRP3 inflammasome [7]; nigericin 1 h, FIG. 5B): reduction | IL-1β secretion (NLRP3 inflammasome [7]; nigericin 1 h, FIG. 5C): reduction
